{"source": "paper PMC12016518", "data": [{"molecular_target": "T1, VPA1365-His (Vibrio parahaemolyticus RIMD2210633) (UniProt Q87GF1)", "T1 sequence": "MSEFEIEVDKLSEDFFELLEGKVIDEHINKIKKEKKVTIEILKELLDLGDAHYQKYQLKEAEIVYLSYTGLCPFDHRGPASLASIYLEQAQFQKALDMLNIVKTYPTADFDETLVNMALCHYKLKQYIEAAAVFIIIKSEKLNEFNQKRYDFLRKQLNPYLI", "experiment": "EMSA", "details": "EMSA: 30 nM 5'-FAM probe, 20 µL with 4 µL 5x buffer (10 mM NaCl, 0.1 mM DTT, 0.1 mM EDTA, 10 mM Tris, pH 7.4; unclear if 5x or final), 25°C, 0.5 h, 6% PAGE", "values": [{"sequence": "CGCTCTATAATGCTGACCCTTTTATCAATACTGTACTTATTTCCACAACAAAAAAGCGTACAGTTATTTACTTTTTTACCTTTAACTTGCTGTGAAAATAATATCGTCGACCTGCAGGCA (double strand) [mshA promoter]", "binding": "binds"}, {"sequence": "GCGCATAGCTGTTATAAGAATCCTCAATTCATTTCAATTAATGAGTATTCAGTCAATTAATAGAGCGATTTACTTCATAAAACCATTTTATTTTTATGGACTTAGCTCAAGAAATGACAGCATTATTAACTAATTTTAATAATTTGAGGAATGCATCAATAACTATTTCATATAAACACGATTTACTGTTGACTAAGTTTTATAAATATCGATGATCAGCAAGTTAAACTGAACGAAGTTTTATTCATTTGAAAGCGCAAGAACATGACTATCGTCGACCTGCAGGCA (double strand) [scrG promoter (PscrG)]", "binding": "binds"}, {"sequence": "TGCCTGCAGGTCGACGATCACAAGCAACAAAATTCATATTACTTCAACTAACTCAGTAAGTTGTAAGTAATTCATCATTAAAAAGGGCCACTAGGCCCTTTCTTTTTATCCATTAAAAAATAGCATTACTCGCAAAACTCTGCATACGATATGCAACTTTCTACCAAAGAGTTTTACCTCACTCGAGACCCCATCTCTTCCCCATTTTCAACCTTTATGAAGTCTCCATAATCCTTCGCTAATGCAAGGGCATTATTTATTTCATTAAGAAGGAAAG (double strand) [pilA promoter]", "binding": "binds"}]}]}
